PMC7458312, “Anthrax toxin component, Protective Antigen, protects insects from bacterial infections” (PLoS Pathogens, 2020)

What was measured:
[1] = biological target: T1, Drosophila melanogaster peptidoglycan-recognition protein-SA (PGRP-SA), T7-tagged (D. melanogaster, UniProt Q9VYX7 27-203); assay: ELISA; […]) or 5% BSA ([…]; conditions: both partners purified
T1 construct: also called PRGP-SA
T1 sequence (looked up): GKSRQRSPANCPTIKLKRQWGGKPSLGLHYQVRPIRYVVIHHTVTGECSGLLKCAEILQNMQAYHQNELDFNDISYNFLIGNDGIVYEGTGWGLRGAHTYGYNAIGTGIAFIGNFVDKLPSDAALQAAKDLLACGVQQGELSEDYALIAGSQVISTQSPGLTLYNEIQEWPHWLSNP

[2] = biological target: T2, human recombinant PGRP-S (also called PGLYRP1) (human, UniProt O75594 22-196); assay: ELISA; […]) or 5% BSA ([…]; conditions: both partners purified
T2 construct: also called PRGP-S; human PGRP-SA ortholog
T2 sequence (looked up): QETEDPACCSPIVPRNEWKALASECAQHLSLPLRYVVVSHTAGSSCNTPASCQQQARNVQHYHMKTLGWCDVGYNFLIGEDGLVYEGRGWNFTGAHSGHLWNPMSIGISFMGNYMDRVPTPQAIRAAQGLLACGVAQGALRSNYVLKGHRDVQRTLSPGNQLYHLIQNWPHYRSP

B1: PA20, 20 kDa subunit of anthrax toxin Protective Antigen (PA83) (domain or fragment)
chain: EVKQENRLLNESESSSQGLLGYYFSDLNFQAPMVVTSSTTGDLSIPSSELENIPSENQYFQSAIWSGFIKVKKSDEYTFATSADNHVTMWVDDQEVINKASNSNKIRLEKGRLYQIKIQYQRENPTEKGLDFKLYWTDSQNKKEVISSDNLQLPELKQKSSNS
notes: also called pelB-PA20-6His
binding result [1]: binds
binding result [2]: binds
